According to paper PMC3942467:

Target: recombinant C-terminal fragment (residues 284-707) of nucleolin (nucleolin-C) (UniProt P19338)
Test: SPR; Biacore 3000; nucleolin-C amine-coupled on CM4 chip (~540 RU); FGF1 or FGF2 10-320 nM in PBS with 0.1 mg/ml BSA, 0.005% P20, pH 7.3, 25 C, 30 ul/min; no fit to 1:1 Langmuir, constants by Interaction Map (two parallel processes); apparent/approximate

Chain of UniProt P19338 (P19338 284-707): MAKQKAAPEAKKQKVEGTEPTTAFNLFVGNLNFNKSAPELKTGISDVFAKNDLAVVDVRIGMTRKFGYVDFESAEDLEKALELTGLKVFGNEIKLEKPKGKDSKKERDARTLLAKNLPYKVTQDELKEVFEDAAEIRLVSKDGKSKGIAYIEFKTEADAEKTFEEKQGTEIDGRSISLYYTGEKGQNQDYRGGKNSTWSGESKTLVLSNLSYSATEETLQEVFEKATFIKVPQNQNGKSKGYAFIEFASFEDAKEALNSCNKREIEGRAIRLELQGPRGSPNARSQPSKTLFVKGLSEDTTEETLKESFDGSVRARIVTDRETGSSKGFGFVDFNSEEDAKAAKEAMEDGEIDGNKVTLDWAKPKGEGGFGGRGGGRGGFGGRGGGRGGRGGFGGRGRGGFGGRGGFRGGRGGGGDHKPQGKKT

recombinant FGF1, truncated form (Ala-FGF1 21-154), wild type (ligand)
KD, stronger of two parallel binding processes (apparent): 40 nM | KD, weaker of two parallel binding processes (approximate): 480 nM | ka, stronger of two parallel binding processes: 18000 M⁻¹ s⁻¹ | ka, weaker of two parallel binding processes: 1.7e+06 M⁻¹ s⁻¹ | kd, stronger of two parallel binding processes: 0.0007 s⁻¹ | kd, weaker of two parallel binding processes: 0.83 s⁻¹
